Laboratory results reported in patent US20250019450A1 (DIAGONAL THERAPEUTICS, published 2025).

Each binder was assayed against human IL-12 receptor (IL-12Rβ1 and IL-12Rβ2) on HEK-Blue IL-12 cells (human, UniProt P42701 24-662; Q99665 24-862) (assay: cell-based or functional assay).
human IL-12 receptor (IL-12Rβ1 and IL-12Rβ2) on HEK-Blue IL-12 cells, sequence (Q99665 24-862, chain 2 of 2, other chains not shown): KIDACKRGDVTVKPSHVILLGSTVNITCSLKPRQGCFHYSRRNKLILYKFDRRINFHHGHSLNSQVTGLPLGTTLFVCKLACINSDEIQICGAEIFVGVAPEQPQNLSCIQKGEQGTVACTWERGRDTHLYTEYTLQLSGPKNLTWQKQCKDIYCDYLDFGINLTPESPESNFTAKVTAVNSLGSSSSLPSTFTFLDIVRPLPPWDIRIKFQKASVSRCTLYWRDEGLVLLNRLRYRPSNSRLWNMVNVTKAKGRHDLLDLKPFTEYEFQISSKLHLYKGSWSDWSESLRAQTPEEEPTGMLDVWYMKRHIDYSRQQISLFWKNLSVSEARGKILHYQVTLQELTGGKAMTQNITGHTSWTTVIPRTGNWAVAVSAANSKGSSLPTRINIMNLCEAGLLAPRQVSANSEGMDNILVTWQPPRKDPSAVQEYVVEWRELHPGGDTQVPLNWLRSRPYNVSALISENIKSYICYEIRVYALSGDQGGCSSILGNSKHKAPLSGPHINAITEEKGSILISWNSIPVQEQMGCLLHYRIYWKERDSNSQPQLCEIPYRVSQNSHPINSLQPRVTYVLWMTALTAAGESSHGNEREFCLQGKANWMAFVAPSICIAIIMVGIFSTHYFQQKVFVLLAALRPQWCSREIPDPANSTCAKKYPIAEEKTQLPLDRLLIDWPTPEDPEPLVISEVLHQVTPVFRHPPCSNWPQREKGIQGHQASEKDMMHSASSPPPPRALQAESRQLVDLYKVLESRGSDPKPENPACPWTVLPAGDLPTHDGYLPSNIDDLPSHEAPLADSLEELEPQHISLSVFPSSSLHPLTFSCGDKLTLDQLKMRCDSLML

Binder | Max Absorbance
DGL427 (bispecific antibody, human IgG1, kappa) heavy 1: not shown heavy 2: EVLLVESGGGLVKPGGSLRLSCAASGFTFSSYSMNWVRQAPGKGLEWVSSISSSSDYIHYADSVRGRFTISRDNAKNSLYLQMNSLRAEDTAVYYCARSELGFDYWGQGTLVTVSSASTKGPSVFPLAPSSKSTSGGTAALGCLVKDYFPEPVTVSWNSGALTSGVHTFPAVLQSSGLYSLSSVVTVPSSSLGTQTYICNVNHKPSNTKVDKKVEPKSCDKTHTCPPCPAPEAAGAPSVFLFPPKPKDTLMISRTPEVTCVVVDVSHEDPEVKFNWYVDGVEVHNAKTKPREEQYNSTYRVVSVLTVLHQDWLNGKEYKCKVSNKALPAPIEKTISKAKGQPREPQVCTLPPSRDELTKNQVSLSCAVKGFYPSDIAVEWESNGQPENNYKTTPPVLDSDGSFFLVSKLTVDKSRWQQGNVFSCSVMHEALHNRFTQKSLSLSPG light: DIQMTQSPSSVSASVGDRVTITCRASQGISIWLAWYQQKPGKAPKPLIYAASSLQSGVPSRFSGSGSGTDFTLTISSLQPEDFATYYCQQANSFPLTFGGGTKVEIKRTVAAPSVFIFPPSDEQLKSGTASVVCLLNNFYPREAKVQWKVDNALQSGNSQESVTEQDSKDSTYSLSSTLTLSKADYEKHKVYACEVTHQGLSSPVTKSFNRGEC | 0.25
DGL415 (bispecific antibody, human IgG1, kappa) heavy 1: not shown heavy 2: QVQLVESGGGLVQAGGSLRLSCAASGRTFSRYRMGWFRQAPGKEREFVAAITKSGATTYDADSVKGRFTISRDNAKNTLYLQMNSLKPEDTAVYYCAASYHSNWWPKNADEYAYWGQGTQVTVEPKSSDKTHTCPPCPAPEAAGAPSVFLFPPKPKDTLMISRTPEVTCVVVDVSHEDPEVKFNWYVDGVEVHNAKTKPREEQYNSTYRVVSVLTVLHQDWLNGKEYKCKVSNKALPAPIEKTISKAKGQPREPQVCTLPPSRDELTKNQVSLSCAVKGFYPSDIAVEWESNGQPENNYKTTPPVLDSDGSFFLVSKLTVDKSRWQQGNVFSCSVMHEALHNRFTQKSLSLSPG light: not shown | 0.23
DGL440 (bispecific antibody, human IgG1, lambda) heavy 1: not shown heavy 2: QVQLVQPGAEVKKPGASVKVSCKASGYTFTGYYMHWVRQAPGQGLEWMGWINPKSGGTNYAQKFQGRVTMTRDTSISTAYMELTRLRSDDTAVYYCARDQGYGDYVLKHWGQGTLVTVSSASTKGPSVFPLAPSSKSTSGGTAALGCLVKDYFPEPVTVSWNSGALTSGVHTFPAVLQSSGLYSLSSVVTVPSSSLGTQTYICNVNHKPSNTKVDKKVEPKSCDKTHTCPPCPAPEAAGAPSVFLFPPKPKDTLMISRTPEVTCVVVDVSHEDPEVKFNWYVDGVEVHNAKTKPREEQYNSTYRVVSVLTVLHQDWLNGKEYKCKVSNKALPAPIEKTISKAKGQPREPQVCTLPPSRDELTKNQVSLSCAVKGFYPSDIAVEWESNGQPENNYKTTPPVLDSDGSFFLVSKLTVDKSRWQQGNVFSCSVMHEALHNRFTQKSLSLSPG light: SYVLTQPPSVSVAPGQTARITCGGDNIGSKSVHWYQQKPGQAPVPVVYDDSDRPSGIPERFSGSNSGNTATLTISRVEAGDEADYYCQVWDSSSDHVVFGGGTKLTVLGQPKAAPSVTLFPPSSEELQANKATLVCLISDFYPGAVTVAWKADSSPVKAGVETTTPSKQSNNKYAASSYLSLTPEQWKSHRSYSCQVTHEGSTVEKTVAPTECS | 0.22
DGL442 (bispecific antibody, human IgG1, lambda) heavy 1: not shown heavy 2: QVHLQESGPGLVKPSETLSLTCTVSGGSISYYYWNWIRQPPGKGLEWIASIYNSGNINYNPSLKSRVTISVDTSKNQFSLKLTSVTAADTAVYYCARGGYSYGYFDNWGQGILVTVSSASTKGPSVFPLAPSSKSTSGGTAALGCLVKDYFPEPVTVSWNSGALTSGVHTFPAVLQSSGLYSLSSVVTVPSSSLGTQTYICNVNHKPSNTKVDKKVEPKSCDKTHTCPPCPAPEAAGAPSVFLFPPKPKDTLMISRTPEVTCVVVDVSHEDPEVKFNWYVDGVEVHNAKTKPREEQYNSTYRVVSVLTVLHQDWLNGKEYKCKVSNKALPAPIEKTISKAKGQPREPQVCTLPPSRDELTKNQVSLSCAVKGFYPSDIAVEWESNGQPENNYKTTPPVLDSDGSFFLVSKLTVDKSRWQQGNVFSCSVMHEALHNRFTQKSLSLSPG light: SYELTQPPSVSVSPGQTASITCSGRELGNKYAYWYQQKPGQSPVLVIYEDYKRPSGIPERFSGSNSGNTATLTISGTQAMDEADYYCQAWDSSTVIFGGGTKLTVLGQPKAAPSVTLFPPSSEELQANKATLVCLISDFYPGAVTVAWKADSSPVKAGVETTTPSKQSNNKYAASSYLSLTPEQWKSHRSYSCQVTHEGSTVEKTVAPTECS | 0.22
DGL430 (bispecific antibody, human IgG1, lambda) heavy 1: not shown heavy 2: QVHLQESGPGLVKPSETLSLTCTVSGGSISYYYWNWIRQPPGKGLEWIASIYNSGNINYNPSLKSRVTISVDTSKNQFSLKLTSVTAADTAVYYCARGGYSYGYFDNWGQGILVTVSSASTKGPSVFPLAPSSKSTSGGTAALGCLVKDYFPEPVTVSWNSGALTSGVHTFPAVLQSSGLYSLSSVVTVPSSSLGTQTYICNVNHKPSNTKVDKKVEPKSCDKTHTCPPCPAPEAAGAPSVFLFPPKPKDTLMISRTPEVTCVVVDVSHEDPEVKFNWYVDGVEVHNAKTKPREEQYNSTYRVVSVLTVLHQDWLNGKEYKCKVSNKALPAPIEKTISKAKGQPREPQVCTLPPSRDELTKNQVSLSCAVKGFYPSDIAVEWESNGQPENNYKTTPPVLDSDGSFFLVSKLTVDKSRWQQGNVFSCSVMHEALHNRFTQKSLSLSPG light: SYELTQPPSVSVSPGQTASITCSGRELGNKYAYWYQQKPGQSPVLVIYEDYKRPSGIPERFSGSNSGNTATLTISGTQAMDEADYYCQAWDSSTVIFGGGTKLTVLGQPKAAPSVTLFPPSSEELQANKATLVCLISDFYPGAVTVAWKADSSPVKAGVETTTPSKQSNNKYAASSYLSLTPEQWKSHRSYSCQVTHEGSTVEKTVAPTECS | 0.21
DGL400 (bispecific antibody, human IgG1, kappa) heavy 1: not shown heavy 2: QVQLVESGGGLVQAGGSLRLSCAASGRTFSRYRMGWFRQAPGKEREFVAAITKSGATTYDADSVKGRFTISRDNAKNTLYLQMNSLKPEDTAVYYCAASYHSNWWPKNADEYAYWGQGTQVTVEPKSSDKTHTCPPCPAPEAAGAPSVFLFPPKPKDTLMISRTPEVTCVVVDVSHEDPEVKFNWYVDGVEVHNAKTKPREEQYNSTYRVVSVLTVLHQDWLNGKEYKCKVSNKALPAPIEKTISKAKGQPREPQVCTLPPSRDELTKNQVSLSCAVKGFYPSDIAVEWESNGQPENNYKTTPPVLDSDGSFFLVSKLTVDKSRWQQGNVFSCSVMHEALHNRFTQKSLSLSPG light: DIQLTQSPSFLSASVGDRVTITCRASQGISSYLAWYQQKPGKAPKVLIYAASTLQSGVPSRFSGSGSGTEFTLTISSLLPEDFATYFCQQLHRYPYTFGQGAKLEIKRTVAAPSVFIFPPSDEQLKSGTASVVCLLNNFYPREAKVQWKVDNALQSGNSQESVTEQDSKDSTYSLSSTLTLSKADYEKHKVYACEVTHQGLSSPVTKSFNRGEC | 0.21
DGL425 (bispecific antibody, human IgG1, kappa) heavy 1: not shown heavy 2: EVQLVQSGTEVKKPGESLKISCKGSGYSFTSYWIGWVRQMPGKGLEWMGNIYPGDSDTRYSPSFQGHVTISADKSISTAYLQWSSLKASDTAMYYCARRGGGYWGQGTLVTVSSASTKGPSVFPLAPSSKSTSGGTAALGCLVKDYFPEPVTVSWNSGALTSGVHTFPAVLQSSGLYSLSSVVTVPSSSLGTQTYICNVNHKPSNTKVDKKVEPKSCDKTHTCPPCPAPEAAGAPSVFLFPPKPKDTLMISRTPEVTCVVVDVSHEDPEVKFNWYVDGVEVHNAKTKPREEQYNSTYRVVSVLTVLHQDWLNGKEYKCKVSNKALPAPIEKTISKAKGQPREPQVCTLPPSRDELTKNQVSLSCAVKGFYPSDIAVEWESNGQPENNYKTTPPVLDSDGSFFLVSKLTVDKSRWQQGNVFSCSVMHEALHNRFTQKSLSLSPG light: not shown | 0.19

Continued, values first:

Max Absorbance | Binder
0.25 | DGL453 (bispecific antibody, V domains shown) V domain 1: QVQLQESGGALVQPGGSLRLSCVVSGFTSDYFAIGWFRQAPGKEREGVSCIGSSDGSTIYSDSVKGRFTISRDNAKNTVYLQMNSLKPEDTGVYYCALDRGRRTIIGYACYATMKYWGKGTPVTVEP V domain 2: QVQLVESGGGLVQPGGSLRLSCAASGFTFSNYAMSWIRQGPERGFEWVSRINSGGGTTSYADSVKGRFTISRDNAKNTLYLQMNSLKPEDTAVYYCAKHSHPDYSSNYYRPGQGTQVTVEP
0.24 | DGL443 (bispecific antibody, human IgG1, lambda) heavy 1: not shown heavy 2: QVTLRESGPALVKPTQTLTLTCTFSGFSLSTSGMCVSWIRQPPGKALEWLALIYWDDDKYYSTSLKTRLTISKDTSKNQVVLTMTNMDPVDTATYYCARMRRGIEAFDIWGQGTMVTVFSASTKGPSVFPLAPSSKSTSGGTAALGCLVKDYFPEPVTVSWNSGALTSGVHTFPAVLQSSGLYSLSSVVTVPSSSLGTQTYICNVNHKPSNTKVDKKVEPKSCDKTHTCPPCPAPEAAGAPSVFLFPPKPKDTLMISRTPEVTCVVVDVSHEDPEVKFNWYVDGVEVHNAKTKPREEQYNSTYRVVSVLTVLHQDWLNGKEYKCKVSNKALPAPIEKTISKAKGQPREPQVCTLPPSRDELTKNQVSLSCAVKGFYPSDIAVEWESNGQPENNYKTTPPVLDSDGSFFLVSKLTVDKSRWQQGNVFSCSVMHEALHNRFTQKSLSLSPG light: QSVLTQPPSVSGAPGQRVTISCTGSSSNIGAGYDVHWYQQLPGTAPKLLIFGYSNRPSGVPVRFSGSKSGTSASLAITGLLAEDEADFYCQSFDISLTGWVFGGGTKLTVLGQPKAAPSVTLFPPSSEELQANKATLVCLISDFYPGAVTVAWKADSSPVKAGVETTTPSKQSNNKYAASSYLSLTPEQWKSHRSYSCQVTHEGSTVEKTVAPTECS
0.23 | DGL604 (bispecific antibody, V domains shown) V domain 1: QVQLVESGGGLVQAGGSLRLSCAASRSISSFNEMAWYRQAPGEQRELVATIVSTVGFTNYADSVKGRFTISRDNAKNTVYLQMNSLKAEDTAVYYCNARRISTDYWGQGTQVTVEP V domain 2: QLQLVESGGGLVQAGGSLRLSCAASGRTFGIHGMGWFRQAPGKEREFAAAIRWSDGTTIHADSVKGRLTISRDNAKNTVYLQMNSLKPEDTAVYYCAATSNPQFGRNWYTVAAGVEYGYWGQGTQVTVEP
0.21 | DGL525 (bispecific antibody, V domains shown) V domain 1: EVQLVESGGGLVQPGGSLRLFCAASRSIFNINIMGWYRQAPGKQREWLASITSGGSTFYADSVKDRFTISRDSVKNTVYLQMNSLKPEDTAAYYCNRYRSVPLNTVYPWGQGTLVTVEP V domain 2: QVQLVESGGGLVQAGGSLRLSCAASGRTFSSYAMGWFRQAPGKEREFVSAISWSGLSTYYVESVQGRFTISRDNAKNTVYLQMNSLKPEDTAVYYCAASRIYTNYVARSYEYDDWGQGTQVTVEP
0.18 | DGL547 (bispecific antibody, V domains shown) V domain 1: EVQLVESGGGLVQPGGSLRLSCAASGFTLDYYAIGWFRQAPGKEREGVSCISSSDRSTWYADSVKGRFTISRDNAKNTVYLQMHSLKPEDTAVYYCATPCYSDYDPEGYEYDYWGQGTQVTVEP V domain 2: QLQLVESGGGLVQAGGSLRLSCAASGLTFSGYTVGWFRQAPGKEREFVAAINWSSAYTYSEFVKGRFTISRDNAKNTVYLQMSSLKPEDTAVYYCAAQRSRTSWYASTAEAYDYWGQGTQVTVEP
